Measurements: patent publication US20210032351A1 (XDCEXPLORER SHANGHAI, published 2021)
Ends that are not written are not given here. * marks the point of attachment. Biotin = O=C1N[C@H]2[C@H](CS[C@H]2CCCCC(=O)*)N1

Assays:
[1] = target: T1, human EGFRvIII-hFc protein (human, UniProt P00533 25-645); assay: ELISA, coated EGFRvIII-hFc, antibody 100 nM
T1 construct: extracellular domain; made in HEK293 cells, purified on protein A; also called immunogen A; hFc-tagged EGFRvIII protein; not shown: human IgG Fc fragment (hFc) of the pCpC vector
Outline: (§1)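 Direct ELISA against immobilized EGFRvIII-hFc (1.0 μg/mL coating). Antibody incubated 2 h at 37° C, detected with HRP secondary and TMB; absorbance at 450 nm.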

pep28 = target: T2, pep28 (cysteine pairing not given here); assay: polypeptide dot matrix ELISA
T2 peptide: EEDGVRKCKKCEGPCRK(Biotin)

pep29 = target: T3, pep29 (cysteine pairing not given here); assay: polypeptide dot matrix ELISA
T3 peptide: EDGVRKCKKCEGPCRKK(Biotin)

pep02 = target: T4, pep02; assay: polypeptide dot matrix ELISA
T4 peptide: EEKKGNYVVTDHGSCVK(Biotin)

pep15 = target: T5, pep15 (cysteine pairing not given here); assay: polypeptide dot matrix ELISA
T5 peptide: SCVRACGADSYEMEEDK(Biotin)

pep23 = target: T6, pep23 (cysteine pairing not given here); assay: polypeptide dot matrix ELISA
T6 peptide: DSYEMEEDGVRKCKKCK(Biotin)

pep32 = target: T7, pep32 (cysteine pairing not given here); assay: polypeptide dot matrix ELISA
T7 peptide: VRKCKKCEGPCRKVCNK(Biotin)

pep33 = target: T8, pep33 (cysteine pairing not given here); assay: polypeptide dot matrix ELISA
T8 peptide: RKCKKCEGPCRKVCNGK(Biotin)

pep17 = target: T9, pep17; assay: polypeptide dot matrix ELISA
T9 peptide: VRACGADSYEMEEDGVK(Biotin)

pep24 = target: T10, pep24 (cysteine pairing not given here); assay: polypeptide dot matrix ELISA
T10 peptide: SYEMEEDGVRKCKKCEK(Biotin)

pep08 = target: T11, pep08 (cysteine pairing not given here); assay: polypeptide dot matrix ELISA
T11 peptide: YVVTDHGSCVRACGADK(Biotin)

pep12 = target: T12, pep12 (cysteine pairing not given here); assay: polypeptide dot matrix ELISA
T12 peptide: DHGSCVRACGADSYEMK(Biotin)

pep07 = target: T13, pep07 (cysteine pairing not given here); assay: polypeptide dot matrix ELISA
T13 peptide: NYVVTDHGSCVRACGAK(Biotin)

pep14 = target: T14, pep14 (cysteine pairing not given here); assay: polypeptide dot matrix ELISA
T14 peptide: GSCVRACGADSYEMEEK(Biotin)

pep10 = target: T15, pep10 (cysteine pairing not given here); assay: polypeptide dot matrix ELISA
T15 peptide: VTDHGSCVRACGADSYK(Biotin)

pep27 = target: T16, pep27 (cysteine pairing not given here); assay: polypeptide dot matrix ELISA
T16 peptide: MEEDGVRKCKKCEGPCK(Biotin)

pep19 = target: T17, pep19; assay: polypeptide dot matrix ELISA
T17 peptide: ACGADSYEMEEDGVRKK(Biotin)

pep26 = target: T18, pep26 (cysteine pairing not given here); assay: polypeptide dot matrix ELISA
T18 peptide: EMEEDGVRKCKKCEGPK(Biotin)

pep31 = target: T19, pep31 (cysteine pairing not given here); assay: polypeptide dot matrix ELISA
T19 peptide: GVRKCKKCEGPCRKVCK(Biotin)

pep13 = target: T20, pep13 (cysteine pairing not given here); assay: polypeptide dot matrix ELISA
T20 peptide: HGSCVRACGADSYEMEK(Biotin)

pep03 = target: T21, pep03; assay: polypeptide dot matrix ELISA
T21 peptide: EKKGNYVVTDHGSCVRK(Biotin)

pep01 = target: T22, pep01; assay: polypeptide dot matrix ELISA
T22 peptide: LEEKKGNYVVTDHGSCK(Biotin)

pep25 = target: T23, pep25 (cysteine pairing not given here); assay: polypeptide dot matrix ELISA
T23 peptide: YEMEEDGVRKCKKCEGK(Biotin)

pep22 = target: T24, pep22; assay: polypeptide dot matrix ELISA
T24 peptide: ADSYEMEEDGVRKCKKK(Biotin)

pep04 = target: T25, pep04; assay: polypeptide dot matrix ELISA
T25 peptide: KKGNYVVTDHGSCVRAK(Biotin)

pep18 = target: T26, pep18; assay: polypeptide dot matrix ELISA
T26 peptide: RACGADSYEMEEDGVRK(Biotin)

pep34 = target: T27, pep34 (cysteine pairing not given here); assay: polypeptide dot matrix ELISA
T27 peptide: KCKKCEGPCRKVCNGIK(Biotin)

pep06 = target: T28, pep06 (cysteine pairing not given here); assay: polypeptide dot matrix ELISA
T28 peptide: GNYVVTDHGSCVRACGK(Biotin)

pep09 = target: T29, pep09 (cysteine pairing not given here); assay: polypeptide dot matrix ELISA
T29 peptide: VVTDHGSCVRACGADSK(Biotin)

pep16 = target: T30, pep16 (cysteine pairing not given here); assay: polypeptide dot matrix ELISA
T30 peptide: CVRACGADSYEMEEDGK(Biotin)

pep05 = target: T31, pep05 (cysteine pairing not given here); assay: polypeptide dot matrix ELISA
T31 peptide: KGNYVVTDHGSCVRACK(Biotin)

pep21 = target: T32, pep21; assay: polypeptide dot matrix ELISA
T32 peptide: GADSYEMEEDGVRKCKK(Biotin)

[2] = target: T1, human EGFRvIII-hFc protein; assay: ELISA, coated EGFRvIII-hFc, antibody 0.001 nM
Outline: as §1

- OD450 nm [1]: 0.56
- binding result (pep28): no binding
- binding result (pep29): no binding
- binding result (pep02): no binding
- binding result (pep15): no binding
- binding result (pep23): no binding
- binding result (pep32): no binding
- binding result (pep33): no binding
- binding result (pep17): no binding
- binding result (pep24): no binding
- binding result (pep08): no binding
- binding result (pep12): no binding
- binding result (pep07): no binding
- binding result (pep14): no binding
- binding result (pep10): no binding
- binding result (pep27): no binding
- binding result (pep19): no binding
- binding result (pep26): no binding
- binding result (pep31): no binding
- binding result (pep13): no binding
- binding result (pep03): no binding
- binding result (pep01): no binding
- binding result (pep25): no binding
- binding result (pep22): no binding
- binding result (pep04): no binding
- binding result (pep18): no binding
- binding result (pep34): no binding
- binding result (pep06): no binding
- binding result (pep09): no binding
- binding result (pep16): no binding
- binding result (pep05): no binding
- binding result (pep21): no binding
- OD450 nm [2]: 0.07
B1: Murine anti-75G7 (antibody, V domains shown)
VH: EVQLQQSGPELVKPGASVKIPCKASGYTFTDYNMDWVKQSHGKSLEWIGDINPNNGDTIYNQKFKGKATLTVDKSSSTAYMELRSLTSEDTAVYYCARGDYDGYYPVYYAMDYWGQGTSVTVSS
VL: ENVLTQSPAIMSASPGEKVTMTCRASSSVSSSYLHWYQQKSGASPKLWIFSTSNLAAGVPARFSGSGSGTSYSLTVSSVEAEDAATYYCQQYSGYPLTFGAGTKLELK
notes: murine hybridoma antibody; also called 75G7C6
